Consider 1 molecule from patent publication US20110008369A1.

The target in the experiment is human PD-1 (Programmed Cell Death 1), expressed on cells (human) (UniProt Q15116). In words: cell binding; 0.2 ug/ml IgG on activated human CD4+ cells, 37 C.
Sequence of human PD-1 (Programmed Cell Death 1), expressed on cells (human) (Q15116 25-288 limits assumed): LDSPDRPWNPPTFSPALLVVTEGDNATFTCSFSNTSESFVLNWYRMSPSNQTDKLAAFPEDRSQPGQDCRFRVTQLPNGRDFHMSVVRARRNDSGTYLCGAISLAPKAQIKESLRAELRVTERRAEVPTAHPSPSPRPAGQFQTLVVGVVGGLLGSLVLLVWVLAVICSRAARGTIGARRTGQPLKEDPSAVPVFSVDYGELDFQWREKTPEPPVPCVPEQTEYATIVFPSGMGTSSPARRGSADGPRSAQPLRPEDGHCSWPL

B1: mAb 6D10 (antibody, part only; not given: light chain variable domain, V domains shown, part only)
VH: EVKLVESGGGLVQPGGSRKLSCAASGFTFSSFGMHWVRQAPEKGLEWVAYVSSASSVIHYADTVKGRFTISRDNPKNTLFLQMTSLRSEDTAMYYCARSGYYGTWFPYWGQGTLVTVS
The molecule B1 came in with an MFI of 133 MFI.
